Assay results as given in article PMC3902126.
Like-named read-outs stand apart in the source and are kept apart here.

Key:
[1] = target: Brucella abortus RicA (Rab2 interacting conserved protein A), His6-RicA (1-175) (Brucella abortus); assay: ITC
[2] = target: Brucella abortus RicA (Rab2 interacting conserved protein A), His6-RicA (1-175) (Brucella abortus); assay: ITC; remark: listed apart in the source

“Homo sapiens Rab2 (1-212) (from UniProt P61019 1-212) (natural protein)” was tested, and the Kd [1] was 40 µM and the Kd [2] was 36 µM.
